Test results published in patent publication US20160046725A1 (PIERRE FABRE MEDICAMENT, published 2016).

T1: human Axl receptor on human tumor cells (human, UniProt P30530 26-894)
T1 sequence: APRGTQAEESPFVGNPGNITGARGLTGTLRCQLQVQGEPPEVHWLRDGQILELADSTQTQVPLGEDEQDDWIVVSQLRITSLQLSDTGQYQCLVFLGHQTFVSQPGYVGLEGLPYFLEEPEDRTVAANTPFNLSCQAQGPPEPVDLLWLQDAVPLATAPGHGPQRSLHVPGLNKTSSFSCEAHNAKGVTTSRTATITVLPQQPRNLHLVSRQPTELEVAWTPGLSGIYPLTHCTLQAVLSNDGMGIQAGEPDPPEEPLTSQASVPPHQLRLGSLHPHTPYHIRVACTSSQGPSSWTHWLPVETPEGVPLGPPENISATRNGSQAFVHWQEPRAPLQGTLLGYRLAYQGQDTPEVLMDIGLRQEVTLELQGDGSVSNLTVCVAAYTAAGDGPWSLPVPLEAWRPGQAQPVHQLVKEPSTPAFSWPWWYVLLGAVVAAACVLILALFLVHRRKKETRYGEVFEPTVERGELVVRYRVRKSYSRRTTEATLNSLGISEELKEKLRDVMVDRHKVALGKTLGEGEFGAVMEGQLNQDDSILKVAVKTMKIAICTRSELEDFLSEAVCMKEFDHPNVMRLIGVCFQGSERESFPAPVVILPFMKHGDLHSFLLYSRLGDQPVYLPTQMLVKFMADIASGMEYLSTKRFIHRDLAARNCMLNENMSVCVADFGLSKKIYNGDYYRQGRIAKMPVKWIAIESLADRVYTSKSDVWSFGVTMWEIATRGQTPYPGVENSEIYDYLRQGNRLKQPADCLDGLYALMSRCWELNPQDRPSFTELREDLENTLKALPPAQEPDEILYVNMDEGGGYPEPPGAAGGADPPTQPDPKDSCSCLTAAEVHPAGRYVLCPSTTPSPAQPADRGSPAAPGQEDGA

T2: monkey Axl receptor on COS7 cells (African green monkey, UniProt A0A0D9S0W1 26-894)
T2 construct: also called monkey cellular form of the Axl receptor
T2 sequence: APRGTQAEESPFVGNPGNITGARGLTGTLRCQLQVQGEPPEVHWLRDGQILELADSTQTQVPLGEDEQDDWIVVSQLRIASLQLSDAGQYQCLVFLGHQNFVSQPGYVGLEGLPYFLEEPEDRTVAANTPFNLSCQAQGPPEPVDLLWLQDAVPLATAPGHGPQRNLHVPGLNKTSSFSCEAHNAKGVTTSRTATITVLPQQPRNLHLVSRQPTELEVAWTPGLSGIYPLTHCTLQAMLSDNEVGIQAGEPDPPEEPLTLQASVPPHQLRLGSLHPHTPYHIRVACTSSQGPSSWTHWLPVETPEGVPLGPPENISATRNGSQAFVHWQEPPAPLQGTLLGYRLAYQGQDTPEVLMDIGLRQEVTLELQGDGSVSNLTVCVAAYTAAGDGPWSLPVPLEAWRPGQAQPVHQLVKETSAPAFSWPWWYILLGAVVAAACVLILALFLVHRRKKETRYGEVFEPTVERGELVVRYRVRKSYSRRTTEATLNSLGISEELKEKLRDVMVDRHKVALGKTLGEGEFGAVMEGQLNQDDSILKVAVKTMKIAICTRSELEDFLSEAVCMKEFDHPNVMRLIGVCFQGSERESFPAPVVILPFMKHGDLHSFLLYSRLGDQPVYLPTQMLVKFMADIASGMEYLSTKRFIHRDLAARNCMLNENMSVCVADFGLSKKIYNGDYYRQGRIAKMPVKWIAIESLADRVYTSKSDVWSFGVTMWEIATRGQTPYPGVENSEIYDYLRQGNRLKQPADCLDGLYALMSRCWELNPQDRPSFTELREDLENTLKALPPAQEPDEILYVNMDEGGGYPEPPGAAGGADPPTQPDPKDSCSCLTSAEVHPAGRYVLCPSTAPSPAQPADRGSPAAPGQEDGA


How the values were obtained:
[1] = target: T1, human Axl receptor on human tumor cells; assay: cell-based or functional assay
[2] = target: T2, monkey Axl receptor on COS7 cells; assay: flow cytometry titration on COS7 cells
Protocol: For 110D7, respectively 1003A2 and 1024G11, cellular binding purpose, 2·10⁵ cells were incubated with an antibody concentration range prepared by ½ serial dilution (12 points) of a 10 μg/ml (6.66 10⁻⁸ M) antibody solution of 110D7, respectively 1003A2 and 1024G11, or m9G4 (mIgG1 isotype control Mab) for 20 min at 4° C. After 3 washes in phosphate-buffered saline (PBS) supplemented with 1% BSA and 0.01% NaN₃, cells were incubated with secondary antibody goat anti-mouse Alexa 488 (dilution 1/500) for 20 minutes at 4° C. After 3 additional washes in PBS supplemented with 1% BSA and 0.1% NaN₃, cells were analyzed by FACS (Facscalibur, Becton-Dickinson). At least 5000 cells were assessed to calculate the mean value of fluorescence intensity. Data are analyzed using Prism software.

Binder | Axl down-regulation at 4 h (western blot, SN12C) [1] [%] | Axl down-regulation at 24 h (western blot, SN12C) [1] [%] | maximal cytotoxic effect on SN12C cells (Mab-Zap assay) [1] [%] | antibody concentration above which the plateau is reached [2] [pM]
110D7 anti-Axl monoclonal antibody (antibody, V domains shown, Murine monoclonal antibody purified from a hybridoma; a mIgG1 isotype control (9G4) is used beside it; also called m110D7; monoclonal antibody 110D7 derived from the hybridoma I-3959) VH: EVKLVESGGGLVQPGGSLKLSCATSGFTFSDYYMYWVRQTPEKRLEWVAYISNGGGSTYYPDTVKGRFTMSRDNAKNTLYLQMSRLKSEDTAMYYCARLSFYAMDYWGQGTSVTVSS VL: DIVMTQSHKFMSTSVGDRVSITCKASQDVTTAVAWYQQKPGQSPKLLIYWASTRHTGVPDRFTGSGSGTDYTLTISSVQAEDLALYYCQQHYRIPFTFGSGTKLEIK | 50 | 84 | ~49 | > 1000
1024G11 anti-Axl monoclonal antibody (antibody, V domains shown, Murine monoclonal antibody purified from a hybridoma; a mIgG1 isotype control (9G4) is used beside it; also called monoclonal antibody 1024G11 derived from the hybridoma I-4501) VH: EVKLVESGGGLVQPGGSLNLSCAASGFTFSSYSMSWVRQTPEKRLEWVAFISNGGGRTYYPDTVKGRFTFSRDNARNTLYLQMSSLNSEDTAMYFCARGTTESYYAMDYWGQGTSVTVSS VL: DIVMTQSHKFMSTSVGDRVSITCKASQDVITAVAWYQQKPGQSPKLLIYWASTRHTGVPDRFTGSGSGTDYTLTISSVQAEDLALYFCQQHLSTPLTFGAGTKLELK | 68 | 85 | ~40 | > 520
1003A2 anti-Axl monoclonal antibody (antibody, V domains shown, Murine monoclonal antibody purified from a hybridoma; a mIgG1 isotype control (9G4) is used beside it; also called monoclonal antibody 1003A2 derived from the hybridoma I-4499) VH: EVKLVESGGGLVQPGGSLKLSCAASGFTFNSYSMSWVRQTPEKRLEWVAYISNGGGRTYYPDTIKGRFTLSRDNDRNTLYLQMSSLKSEDTAMYYCARGTTESYYALDYWGQGTSVTVSS VL: DIVMTQSHKFMSTSLGDRISITCKASQDVITAVAWYQQKPGQSPKLLIYWASTRHTGVPDRFTGSGSGTDYNLTISSVQAEDLALYYCQQHFSTPLTFGAGTKLELK | 66 | 89 | ~37 | > 520
